{
  "source": "FireProtDB (doi:10.1021/bi0357412)",
  "parents": {"B1": {"name": "Phosphocarrier protein HPr, P08877 (parent)", "chain": "MAQKTFKVTADSGIHARPATVLVQTASKYDADVNLEYNGKTVNLKSIMGVMSLGIAKGAEITISASGADENDALNALEETMKSEGLGE"}},
  "data": [
    {"variants_of": "B1", "conditions": "Bacillus subtilis (strain 168); pH 7; 25 °C; GdnHCl; CD; Potassium phosphate 10 mM; reversible: yes; structure 1SPH; whole UniProt chain shown", "units": {"ddG of mutation (higher = less stable)": "kcal/mol", "denaturant m value": "kcal/mol/M", "denaturant midpoint (higher = more stable)": "M", "unfolding free energy": "kcal/mol"}, "values": [
      {"variant": "MAQKTFKVTADSGIHARPATVLVQTASKYDADVNLEYNGKTVNLKSIMEVMSLGIAKGAEITISASGAAENDALNALEETMKSEGLGE", "ddG of mutation (higher = less stable)": -0.6, "denaturant m value": 2.4, "denaturant midpoint (higher = more stable)": 1.8, "unfolding free energy": 4.3}
    ]},
    {"variants_of": "B1", "conditions": "Bacillus subtilis (strain 168); pH 7; 25 °C; Thermal; CD; Sodium phosphate 50 mM; reversible: yes; structure 1SPH; whole UniProt chain shown", "units": {"ddG of mutation (higher = less stable)": "kcal/mol", "unfolding free energy": "kcal/mol"}, "values": [
      {"variant": "MAQKTFKVTADSGIHARPATVLVQTASKYDADVNLEYNGKTVNLKSIMEVMSLGIAKGAEITISASGAAENDALNALEETMKSEGLGE", "ddG of mutation (higher = less stable)": 0.7, "unfolding free energy": 4.4}
    ]},
    {"variants_of": "B1", "conditions": "Bacillus subtilis (strain 168); pH 7; 25 °C; Urea; CD; Sodium phosphate 50 mM; reversible: yes; structure 1SPH; whole UniProt chain shown", "units": {"ddG of mutation (higher = less stable)": "kcal/mol", "denaturant m value": "kcal/mol/M", "denaturant midpoint (higher = more stable)": "M", "unfolding free energy": "kcal/mol"}, "values": [
      {"variant": "MAQKTFKVTADSGIHARPATVLVQTASKYDADVNLEYNGKTVNLKSIMEVMSLGIAKGAEITISASGAAENDALNALEETMKSEGLGE", "ddG of mutation (higher = less stable)": 0.7, "denaturant m value": 1.1, "denaturant midpoint (higher = more stable)": 3.9, "unfolding free energy": 4.2}
    ]},
    {"variants_of": "B1", "conditions": "Bacillus subtilis (strain 168); pH 7; Thermal; DSC; Potassium phosphate 10 mM; reversible: yes; structure 1SPH; whole UniProt chain shown", "units": {"Tm": "°C", "change of melting temperature, mutant - wild type (higher = more stable)": "°C", "unfolding enthalpy (calorimetric)": "kcal/mol"}, "values": [
      {"variant": "MAQKTFKVTADSGIHARPATVLVQTASKYDADVNLEYNGKTVNLKSIMEVMSLGIAKGAEITISASGAAENDALNALEETMKSEGLGE", "Tm": 70, "change of melting temperature, mutant - wild type (higher = more stable)": -4.9, "unfolding enthalpy (calorimetric)": 71.5}
    ]}
  ]
}
